Legend:
TRB1;NAC050-N = target: T1, TRB1;NAC050-N (Arabidopsis thaliana;Arabidopsis …, UniProt Q8VWK4;Q9SQX9 1-300;1-184, |); test: EMSA; TRB1 added to NAC050-N; larger complex; EMSA: 10 mM Tris-HCl pH 7.5, 50 mM NaCl, 1 mM EDTA, 5% glycerol, 1 mM DTT, 25 C, 30 min, 20 ng DNA + 1 ug protein; ITC: 20 mM Tris-HCl pH 7.5, 150 mM NaCl, 25 C, 5 uM protein, 100 uM DNA; conditions: protein: recombinant;recombinant; tags: His;MBP; label: Cy5 at 5' of strand 1; blunt
T1 sequence 1: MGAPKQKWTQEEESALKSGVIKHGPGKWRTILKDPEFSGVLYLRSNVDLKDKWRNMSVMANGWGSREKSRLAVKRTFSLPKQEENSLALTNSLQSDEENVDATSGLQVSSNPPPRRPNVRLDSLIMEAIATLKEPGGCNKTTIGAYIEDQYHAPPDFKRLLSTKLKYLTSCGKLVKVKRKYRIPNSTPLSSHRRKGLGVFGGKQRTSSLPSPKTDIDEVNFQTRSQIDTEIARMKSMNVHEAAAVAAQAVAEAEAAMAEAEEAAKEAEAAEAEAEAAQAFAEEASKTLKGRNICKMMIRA
T1 sequence 2: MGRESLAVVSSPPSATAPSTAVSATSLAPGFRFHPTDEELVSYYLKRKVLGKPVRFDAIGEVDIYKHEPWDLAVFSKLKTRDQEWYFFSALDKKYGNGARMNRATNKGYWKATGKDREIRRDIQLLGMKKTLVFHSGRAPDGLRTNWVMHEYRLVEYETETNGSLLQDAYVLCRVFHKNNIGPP

NAC050-N = target: T2, NAC050-N (Arabidopsis thaliana, UniProt Q9SQX9 1-184); test: EMSA; EMSA: 10 mM Tris-HCl pH 7.5, 50 mM NaCl, 1 mM EDTA, 5% glycerol, 1 mM DTT, 25 C, 30 min, 20 ng DNA + 1 ug protein; ITC: 20 mM Tris-HCl pH 7.5, 150 mM NaCl, 25 C, 5 uM protein, 100 uM DNA; conditions: protein: recombinant; tags: MBP; chain copies: 2; label: Cy5 at 5' of strand 1; blunt
T2 sequence: T1 sequence 2

B1: Probe 2 (P2) (dsDNA)
DNA 1: GACGCTTGAGCCTCAAGAAAT
DNA 2: ATTTCTTGAGGCTCAAGCGTC
B1: binds (TRB1;NAC050-N); binds (NAC050-N).
